Test results published in patent publication US12551596B2, “Delivery systems for administration of cationic biological actives” (Allvivo Vascular, Inc., priority 2017, dated 2026).

Test: Stability of ASP-1 in PU 077 catheter coating after EO sterilization and storage, HPLC
Type: physicochemical
Conditions: coated on catheters, EO sterilized, stored at room temperature up to 9 months
Description: Composition (lot K-132, Table 9.1) comprising ASP-1 peptide (SEQ ID NO: 17 in Table A), custom synthesized hydrophilic medical grade polyurethane (PU 077), polyoxyl 15 hydroxystearate (PEG-15-HS) and citric acid monohydrate (CAxH2O) was prepared by dissolving components in MEK/ethanol solvent and dip coated on 7 Fr triple lumen catheters.
The obtained ASP-1 coated catheters were sterilized by ethylene oxide (EO) gas, vacuum dried and pouched in aluminum foil bags supplied with a desiccant pouch. Peptide purity and recovery from coatings before EO sterilization and after EO sterilization and storage was measured by HPLC after full extraction from catheters.

RRWVRRVRRWVRRVVRVVRRWVRR (Antimicrobial peptide) [ASP-1]
stability of ASP-1 peptide in catheter coating: good stability
